# Reference: publication PMC12723162, “Alphaherpesvirus pUL21 homologs use non-canonical sequences to compete with cellular adaptors for protein phosphatase 1 binding” (The Journal of Biological Chemistry, 2025)
# Like-named read-outs stand apart in the source and are kept apart here.
# Assays:
# Type in all cases: binding
# [1] = target: T1, PP1γ catalytic domain (7–300), C-terminally His6-tagged (Mus musculus, UniProt P63087); assay: Isothermal titration calorimetry (ITC); parameters: key to KD / ∆H / ∆G / -T∆S / N (sites): –: no binding detected
# T1 construct: mouse PP1γ catalytic domain (residues 7–300)-H6; made in house; host or cells: E. coli T7 Express lysY/Iq
# T1 sequence (P63087 7-300): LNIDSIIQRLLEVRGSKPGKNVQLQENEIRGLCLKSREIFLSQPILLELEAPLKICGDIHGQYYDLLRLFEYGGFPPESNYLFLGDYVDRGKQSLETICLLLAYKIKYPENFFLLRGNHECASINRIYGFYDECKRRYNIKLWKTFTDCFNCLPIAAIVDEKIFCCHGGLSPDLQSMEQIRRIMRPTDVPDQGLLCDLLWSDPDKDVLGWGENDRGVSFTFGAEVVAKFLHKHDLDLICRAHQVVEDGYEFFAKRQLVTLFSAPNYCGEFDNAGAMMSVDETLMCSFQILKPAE
# Source text: (§1) Bacterial expression plasmids encoding the mouse PP1γ catalytic domain (residues 7–300)-H6 and pUL21-H6, and mammalian expression vectors encoding pUL21(FV242AA)-GFP, pORF38-GFP and pORF38(FV255AA)-GFP, were described previously ([23]). We note that the mouse and human PP1γ catalytic domains share 100% amino acid identity. pORF38-NLT-H6 was generated by sub-cloning residues 1 to 263 of ORF38 into the vector pOPTnH ([52]). pUL21-RVxF-H6 was generated by inserting the mutations A237V and V239F into pUL21-H6 by QuikChange site-directed mutagenesis. Human PP1α was cloned from HeLa cell cDNA into a vector derived from pF5K (Promega) with an N-terminal Myc epitope tag via restriction-based cloning, and point mutations were introduced into Myc-PP1α by QuikChange mutagenesis. A plasmid encoding pUL21-GFP was generated by sub-cloning a codon-optimized synthetic UL21 gene (GeneArt) into pEGFP-N1 (Clontech), yielding an identical pUL21-GFP amino acid sequence as used in ([23]). pUL21-ΔL, -ΔR and -ΔLR were generated from this vector via inverse PCR, and point mutations were introduced via QuikChange mutagenesis.
# Proteins were expressed using E. coli T7 Express lysY/I^q cells (New England Biolabs) grown in 2 × TY medium at 37 °C to OD600 0.8 to 1.2 before cooling to 22 °C and induction of protein expression using 0.4 mM IPTG. Cells were harvested at 16 to 20 h post-induction and pellets stored at −70 °C until required. Cells were resuspended in chilled lysis buffer (20 mM Tris pH 7.5, 20 mM imidazole, 500 mM NaCl, 1.4 mM β-mercaptoethanol 0.5 mM MgCl2 and 0.05% TWEEN-20 [plus 1 mM MnCl2 for PP1]) that was supplemented with 200 μl EDTA-free protease inhibitor cocktail (Merck) and 400 U bovine DNase I (Merck). Cells were lysed using a TS series cell disruptor (Constant Systems) at 24 kpsi and lysates were clarified (40,000×g, 30 min, 4 °C) before incubation with Ni-NTA agarose (Qiagen) for 1 h at 4 °C. The resin was washed with ≥20 column volumes of wash buffer (20 mM Tris, 20 mM imidazole and 500 mM NaCl [plus 1 mM MnCl2 for PP1]) at pH 7.5 (PP1γ and pORF38-NLT) or pH 8.5 (pUL21 and pUL21-RVxF). Protein was eluted using wash buffer supplemented with additional imidazole (final concentration 250 mM) and proteins were subjected to size-exclusions chromatography using HiLoad 16/600 Superdex 75 (PP1) or Superdex 200 (other) columns equilibrated in 20 mM Tris pH 8.5, 500 mM NaCl, 1 mM DTT (for pUL21 and pUL21-RVxF) or 50 mM HEPES pH 8.0, 500 mM NaCl, 0.5 mM TCEP (for PP1 and pORF38-NLT). Fractions were analysed by SDS-PAGE and those containing the desired protein were pooled, concentrated using centrifugal concentrators (Millipore) and stored at 4 °C (short-term) or snap-frozen in liquid nitrogen for long-term storage at −70 °C.
# ITC experiments were performed using a MicroCal PEAQ-ITC automated calorimeter (Malvern Panalytical). The solvent (ITC buffer) was 50 mM HEPES pH 8.0, 500 mM NaCl, 0.5 mM TCEP. Lyophilized peptides were dissolved into ITC buffer and their concentration was estimated from dry mass. Proteins were diluted in ITC buffer, and their concentration was estimated from the theoretical extinction coefficient at 280 nm ([53]). […] Data were analyzed using MicroCal PEAQ-ITC analysis software (Malvern Panalytical) and fitted using a one-site binding model.
# Table S1. Isothermal titration calorimetry (ITC) of PP1 with TROPPO-containing peptides and proteins. Data for independent experiments are shown. For all, the cell contained C-terminally His6-tagged mouse PP1γ (7–300). –, no binding detected.
# [2] = target: T2, PP1γ catalytic domain : GADD34 peptide pre-formed complex (Mus musculus, UniProt P63087); assay: Competition fluorescence anisotropy, displacement of FITC-GADD34 peptide from PP1γ (HEPES pH 8.0); settings: 2 nM fluorescent GADD34 peptide + 250 nM PP1γ
# T2 construct: mouse PP1γ catalytic domain (residues 7–300)-H6; His6 (C); made in house; host or cells: E. coli T7 Express lysY/Iq (PP1γ); tracer peptide synthesised by GenScript
# T2 sequence (P63087 7-300, one chain of several): as the sequence (P63087 7-300) above
# Source text: as §1
# Peptides were commercially synthesised to >95% purity (GenScript) as follows: GADD34 RVxF+ϕϕ[xF] […]
# (§2) Proteins were expressed using E. coli T7 Express lysY/I^q cells (New England Biolabs) grown in 2 × TY medium at 37 °C to OD600 0.8 to 1.2 before cooling to 22 °C and induction of protein expression using 0.4 mM IPTG. […] Fractions were analysed by SDS-PAGE and those containing the desired protein were pooled, concentrated using centrifugal concentrators (Millipore) and stored at 4 °C (short-term) or snap-frozen in liquid nitrogen for long-term storage at −70 °C.
# Fluorescence anisotropy was measured using a SpectraMax i3 microplate reader (Molecular Devices) with wavelengths 485 ± 20 nm (excitation) and 535 ± 25 nm (emission). Samples (100 μl per well) were dispensed into low-bind black half-area 96-well microtitre plates (Corning) and fluorescence anisotropy was recorded at 27 °C. […]
# [3] = target: T2, PP1γ catalytic domain : GADD34 peptide pre-formed complex; assay: Competition fluorescence anisotropy in Tris pH 8.5 buffer; settings: 2 nM fluorescent GADD34 peptide + 250 nM PP1γ
# Method: Similar competition fluorescence anisotropy experiments with purified full-length pUL21 (Fig. 5E) were performed in a buffer optimized to enhance solubility of the protein (Tris pH 8.5 in place of HEPES pH 8). […] To test whether optimization of the TROPPO sequence to better match a canonical RVxF motif could enhance binding, we generated, expressed and purified a pUL21-H6 mutant where residues A237 and V239 had been substituted for valine and phenylalanine, respectively (pUL21-RVxF, Fig. 5E).
# as §1, with “A plasmid encoding pUL21-GFP was generated by sub-cloning a codon-optimized synthetic UL21 gene (GeneArt) into pEGFP-N1 (Clontech), yielding an identical pUL21-GFP amino acid sequence as used in ([23]). pUL21-ΔL, -ΔR and -ΔLR were generated from this vector via inverse PCR, and point mutations were introduced via QuikChange mutagenesis.” left out
# as §2
# Fluorescence anisotropy was measured using a SpectraMax i3 microplate reader (Molecular Devices) with wavelengths 485 ± 20 nm (excitation) and 535 ± 25 nm (emission). […]
# [4] = TROPPO peptides, independent experiment 1, syringe/cell µM: pUL21 1000/58.8, pORF38 1000/79.6
# [5] = TROPPO peptides, independent experiment 2, syringe/cell µM: pUL21 1000/54.5, pORF38 500/17.0
# [6] = independent experiment 1, 240 µM titrant, 17.0 µM PP1, HEPES pH 8.0, 25 °C
# [7] = independent experiment 2, 147 µM titrant, 10.0 µM PP1, HEPES pH 8.0, 25 °C
# [8] = independent experiment 3, 153 µM titrant, 9.5 µM PP1, HEPES pH 8.0, 25 °C
molecule,measurement,setting,value
"AKRATVSEFVQVKHIDR [pUL21 TROPPO, pUL21 TROPPO peptide (residues 234–250)]",ITC heats of TROPPO peptides against PP1 catalytic domain,"[1]; 500–1000 μM peptide titrated, 50 mM HEPES pH 8.0, 500 mM NaCl, 0.5 mM TCEP, 25 °C",did not evolve heats above background levels
same,-T∆S,[1]; [4],–
same,N (sites),[1]; [4],–
same,∆G,[1]; [4],–
same,∆H,[1]; [4],–
same,KD,"[1]; TROPPO peptides, independent experiment 1, syringe/cell µM: pUL21 1000/58.8, pORF38 1000/79.6, HEPES pH 8.0, 25 °C",–
same,-T∆S,[1]; [5],–
same,N (sites),[1]; [5],–
same,∆G,[1]; [5],–
same,∆H,[1]; [5],–
same,KD,"[1]; TROPPO peptides, independent experiment 2, syringe/cell µM: pUL21 1000/54.5, pORF38 500/17.0, HEPES pH 8.0, 25 °C",–
same,Displacement of GADD34 peptide from PP1 by TROPPO peptides,"[2]; competitor at over 1000-fold molar excess, HEPES pH 8.0, 500 mM NaCl, 0.05% TWEEN-20, 27 °C",Neither TROPPO-containing peptide was able to displace the GADD34 peptide
"Full-length pUL21: purified full-length HSV-1 pUL21 (protein, left off: His6, C-terminal, kept, purified full-length HSV-1 pUL21) MELSYATTMHYRDVVFYVTTDRNRAYFVCGGCVYSVGRPCASQPGEIAKFGLVVRGTGPDDRVVANYVRSELRQRGLQDVRPIGEDEVFLDSVCLLNPNVSSELDVINTNDVEVLDECLAEYCTSLRTSPGVLISGLRVRAQDRIIELFEHPTIVNVSSHFVYTPSPYVFALAQAHLPRLPSSLEALVSGLFDGIPAPRQPLDAHNPRTDVVITGRRAPRPIAGSGAGSGGAGAKRATVSEFVQVKHIDRVGPAGVSPAPPPNNTDSSSLVPGAQDSAPPGPTLRELWWVFYAADRALEEPRADSGLTREEVRAVRGFREQAWKLFGSAGAPRAFIGAALGLSPLQKLAVYYYIIHRERRLSPFPALVRLVGRYTQRHGLYVPRPDDPVLADAINGLFRDALAAGTTAEQLLMFDLLPPKDVPVGSDVQADSTALLRFIESQRLAVPGGVISPEHVAYLGAFLSVLYAGRGRMSAATHTARLTGVTSLVLAVGDVDRLSAFDRGAAGAASRTRAAGYLDVLLTVRLARSQHGQSV",Competition with GADD34 peptide for PP1 binding,[3],unable to out-compete GADD34 for binding to PP1
same,Competition with GADD34 peptide for PP1 binding,[3]; listed as wild-type pUL21,cannot displace a GADD34 RVxF- and ϕϕ[xF]-containing peptide from PP1
"pORF38-NLT: VZV pORF38 N-terminal domain plus Linker region up to the end of the TROPPO motif (residues 1 to 263) (protein, left off: His6, C-terminal, kept) MEFPYHSTVSYNGVTFYFNERATRAYFICGGCLISIPRKHGGEIAKFGHVVRGVGPGDRSVASYVRSELNRTGKTWAVSSNNNCVFLDRVALLAAGSGAVDRDLCGTFDVEVEDPTLADYLVSLPVTHLTLVAGVDVTRENKLKLFPTPTAINTTNGFMYVPNEASFSLVYMRMLELPESLQELVSGLFDGTPEIRDALNGSNDDEKTSIIVSRRAADVVTEDVKADDVPISGEPYSEKQPRRRKKSDHITLSNFVQIRTIPR","ΔH, mean","[1]; 25 °C, HEPES pH 8.0, average of three independent experiments",-13.3 kcal/mol
same,Kd,"[1]; independent experiment 1, 240 µM titrant in syringe, 17.0 µM PP1 in cell, HEPES pH 8.0, 25 °C, read-out: KD",719 nM
same,-T∆S,[1]; [6],4.76 kcal/mol
same,N (sites),[1]; [6],1.21 sites
same,∆G,[1]; [6],-8.38 kcal/mol
same,∆H,[1]; [6],-13.1 kcal/mol
same,Kd,"[1]; independent experiment 2, 147 µM titrant in syringe, 10.0 µM PP1 in cell, HEPES pH 8.0, 25 °C, read-out: KD",540 nM
same,-T∆S,[1]; [7],4.72 kcal/mol
same,N (sites),[1]; [7],0.965 sites
same,∆G,[1]; [7],-8.55 kcal/mol
same,∆H,[1]; [7],-13.3 kcal/mol
same,Kd,"[1]; independent experiment 3, 153 µM titrant in syringe, 9.5 µM PP1 in cell, HEPES pH 8.0, 25 °C, read-out: KD",231 nM
same,-T∆S,[1]; [8],4.5 kcal/mol
same,N (sites),[1]; [8],0.838 sites
same,∆G,[1]; [8],-9.06 kcal/mol
same,∆H,[1]; [8],-13.6 kcal/mol
same,PP1 binding compared with GADD34 peptide,[1]; pORF38-NLT ITC versus GADD34 peptide by fluorescence anisotropy or ITC,substantially weaker binding than observed for the GADD34 peptide
same,Kd,"[1]; pORF38-NLT titrated into PP1, HEPES pH 8.0, 500 mM NaCl, 0.5 mM TCEP, 25 °C, one-site model, mean ± SEM, three independent experiments, listed as pOPF38-NLT, read-out: Affinity (KD), mean",~500 nM
same,Competition with RVxF peptide for PP1 binding,"[2]; increasing concentrations of pORF38-NLT, HEPES pH 8.0",competes with the RVxF peptide for PP1 binding
